Publication PMC3505484

Molecular target: IL-1 receptor on human melanoma A375.S2 cells (human (endogenous in A375.S2)) (UniProt P14778)
Sequence of UniProt P14778 (P14778 18-569): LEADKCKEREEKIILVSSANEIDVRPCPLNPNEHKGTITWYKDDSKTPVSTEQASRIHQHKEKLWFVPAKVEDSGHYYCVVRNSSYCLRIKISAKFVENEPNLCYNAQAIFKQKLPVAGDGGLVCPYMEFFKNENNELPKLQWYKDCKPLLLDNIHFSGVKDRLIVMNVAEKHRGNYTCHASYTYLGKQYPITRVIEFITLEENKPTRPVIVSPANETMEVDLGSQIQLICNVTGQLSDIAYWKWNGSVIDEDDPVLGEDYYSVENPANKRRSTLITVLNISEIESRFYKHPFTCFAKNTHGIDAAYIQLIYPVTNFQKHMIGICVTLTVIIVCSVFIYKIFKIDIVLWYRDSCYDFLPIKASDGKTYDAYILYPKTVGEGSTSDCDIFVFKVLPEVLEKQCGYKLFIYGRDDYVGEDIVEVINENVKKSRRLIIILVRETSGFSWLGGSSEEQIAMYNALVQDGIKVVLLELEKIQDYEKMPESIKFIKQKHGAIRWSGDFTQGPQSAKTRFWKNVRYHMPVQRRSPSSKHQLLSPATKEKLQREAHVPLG

input giving the 50% level of inhibition of the cytolytic activity of 1 ng/ml (0.06 nM) IL-1β to A375.S2 cells (MTT, 72 h); the pair blocked is IL-1β and the IL-1 receptor: 2 nM | input giving the 100% level of inhibition of the cytolytic activity of 1 ng/ml (0.06 nM) IL-1β to A375.S2 cells (MTT, 72 h); the pair blocked is IL-1β and the IL-1 receptor: 32 nM
Substance: IL-1ra-HSA fusion protein (human serum albumin fused to the carboxyl terminal of human IL-1ra) (from UniProt P02768 25-609)
